Data reported in paper PMC5799255, “Histone H5 is a potent Antimicrobial Agent and a template for novel Antimicrobial Peptides” (Scientific Reports, 2018).

Columns and labels:
Format in all cases: cell-based
Listeria monocytogenes = assay: Scanning electron microscopy of treated planktonic bacteria; conditions: 4 µg/mL, 3-hour incubation; three independent trials, each in duplicate
Protocol: (§1) In order to study the effect of histone H5 on bacterial membranes, Gram-positive and Gram-negative planktonic bacteria incubated with histone H5 were visualized by scanning electron microscopy (SEM). Representative SEM images of Listeria monocytogenes and Pseudomonas aeruginosa untreated (H2O control) and histone H5-treated bacterial cells are shown in Fig. 3. […] Similar observations were made in each of three independent trials, each performed in duplicate.
(§2) The same protocols as described in the preparation of the bacterial suspension and the broth microdilution assay were followed to prepare the histone H5-treated bacteria and the untreated control cells for SEM. After a 3-hour incubation of the 1:1 (v/v) ratio of planktonic bacteria and histone H5 (or 1:1 (v/v) ratio of planktonic bacteria and sterile H2O for the untreated control cells), 100 µL of this solution was filtered directly through an Isopore™ polycarbonate membrane filter ([…], EMD Millipore Co Cork, IRL) which was placed in a Swinny Stainless Steel 13 mm Filter Holder (EMD Millipore, MA, USA) connected to vacuum suction. The filter was then removed and placed onto a Kimwipe™ (Kimberly-Clark™ Professional Kimtech Science™) in a glass cell culture dish. The filters were fixed with 5% glutaraldehyde in 0.1 M sodium cacodylate, pH 7.5 (VWR, Radnor, PA, USA) overnight at 4 °C. […]

Pseudomonas aeruginosa = assay: as above; conditions: 4 µg/mL, 3-hour incubation; three independent trials, each in duplicate
Protocol: as §1, §2

[1] = test system: Bacillus cereus (ATCC 11778); assay: Broth microdilution assay (MIC/MBC), planktonic bacteria; conditions: mean ± SD, n = 3
Protocol: (§3) Antimicrobial activity of histone H5 against a variety of Gram-positive and Gram-negative planktonic bacteria was evaluated using a broth microdilution assay. The average minimum inhibitory concentration (MIC) and minimum bactericidal concentration (MBC) values (mean ± SD, n = 3) for six Gram-positive and four Gram-negative bacterial species are shown in Table 2. […] E. faecalis was the least susceptible to histone H5 inhibition, requiring over 32 µg/mL for complete bacterial growth inhibition which was the highest histone H5 concentration tested.
(§4) The bacterial strains tested in this study were Gram-positive bacteria (Bacillus cereus (ATCC 11778), methicillin-sensitive Staphylococcus aureus (ATCC 6538), methicillin-resistant Staphylococcus aureus (ATCC 29247), Listeria monocytogenes (ATCC 19112), Enterococcus faecalis (clinical isolate) and vancomycin-resistant Enterococcus (ATCC 51299)) and Gram-negative bacteria Escherichia coli K12 (ATCC 29425), Escherichia coli (O157:H7), Pseudomonas aeruginosa (ATCC 15442) and Salmonella typhimurium (ATCC 1535)). Bacterial colonies from glycerol stocks were plated on LB agar plates (BHI agar plates for L. monocytogenes) and incubated overnight at 37 °C. Single colonies from these plates were grown in 3 mL of LB broth (BHI broth for L. monocytogenes) overnight at 37 °C and shaken at 250 rpm. […] The bacterial suspension was pelleted at 3,000 × g, 4 °C for 10 minutes and washed with PBS (twice), and then adjusted to 10^5–10^6 CFUs/mL in PBS.
(§5) Supplementary Information
(§6) Broth microdilution assay
(§7) The protocol for this step of the project was based on established methods22. Histone H5 or the peptides were dissolved in sterile water, pH 7.4, serially two-fold diluted and aliquoted in a 1:1 (v/v) ratio with bacteria. Kanamycin or ampicillin served as a positive control for inhibition, and sterile water (pH 7.4) as a negative control for inhibition. The tubes were then incubated for 3 hours at 37°C an d shaken at 200 rpm. Next, 100 µL of each tube and 100µL of LB broth (BHI broth for L. monocytogenes) was plated in wells of a 96-well microplate. The microplate was incubated in the EON microplate reader overnight at 206 oscillations/min and at 37°C. During this period, the EON microplate spectrophotometer and Gen5 data analysis software (BioTek, Winooski, VT, USA) were used to monitor the growth of bacteria by measuring the optical density at 600 nm every 30 minutes for 18 hours. The lowest protein concentration without visible bacterial growth was designated as the minimum inhibitory concentration (MIC). Bacteria (10 µL) from the wells at MIC, MIC x 2 and MIC x 3 concentrations of H5 were plated on LB agar (BHI agar for L. monocytogenes) and incubated at 37°C for 18 hours. The lowest concentration of histone H5 without a single colony was designated as the minimum bactericidal concentration (MBC). […]

[2] = test system: Salmonella typhimurium (ATCC 1535); assay: as above
Protocol: as §3, §4, §5, §6, §7

[3] = test system: Enterococcus faecalis (clinical isolate); assay: as above; conditions: mean ± SD, n = 3
Protocol: as §3, §4, §5, §6, §7

[4] = test system: vancomycin-resistant Enterococcus (ATCC 51299); assay: as above; conditions: mean ± SD, n = 3
Protocol: as §3, §4, §5, §6, §7

[5] = test system: methicillin-sensitive Staphylococcus aureus (ATCC 6538); assay: as above; conditions: mean ± SD, n = 3
Protocol: as §3, §4, §5, §6, §7

[6] = test system: methicillin-resistant Staphylococcus aureus (ATCC 29247); assay: as above; conditions: mean ± SD, n = 3
Protocol: as §3, §4, §5, §6, §7

[7] = test system: Escherichia coli K12 (ATCC 29425); assay: as above
Protocol: as §3, §4, §5, §6, §7

[8] = broth microdilution, 3 h at 37 °C, then OD600 growth 18 h in LB broth, mean ± SD, n = 3
[9] = plated on LB agar, 37 °C 18 h, lowest concentration without a single colony, mean ± SD, n = 3
[10] = value in the figure, representative of three independent trials, each in triplicate
[11] = plated on LB agar, 37 °C 18 h, lowest concentration without a single colony
[12] = broth microdilution, 3 h at 37 °C, then OD600 growth 18 h in LB broth

B1: histone H5: erythrocyte-specific linker histone purified from chicken erythrocytes, 190 amino acids (protein, UniProt P02259 2-190, looked up)
Histone H5: TESLVLSPAPAKPKRVKASRRSASHPTYSEMIAAAIRAEKSRGGSSRQSIQKYIKSHYKVGHNADLQIKLSIRRLLAAGVLKQTKGVGASGSFRLAKSDKAKRSPGKKKKAVRRSTSPKKAARPRKARSPAKKPKATARKARKKSRASPKKAKKPKTVKAKSRKASKAKKVKRSKPRAKSGARKSPKKK
For B1, the “bacterial cell morphology by SEM” value (Listeria monocytogenes) was “Multiple indentations in the bacterial membrane, membrane wrinkling and pronounced deformations”, the “bacterial cell morphology by SEM” value (Pseudomonas aeruginosa) was “indentations in the bacterial membrane, small pore formation” and the MIC ([1]; broth microdilution, 3 h at 37 °C with bacteria 1:1 (v/v), then OD600 growth 18 h in LB broth, lowest concentration without visible growth) was 3.8 ± 1.7 mg/L. It also gave an MBC ([1]; wells at MIC, MIC x 2, MIC x 3 plated on LB agar, 37 °C 18 h, lowest concentration without a single colony) of 3.8 ± 1.7 mg/L, an MIC [2, 8] of 1.9 ± 1.8 mg/L and an MBC [2, 9] of 1.9 ± 1.8 mg/L. For the same molecule, the MIC [2, 10] was 4 mg/L, the MIC ([3]; broth microdilution, 3 h at 37 °C, then OD600 growth 18 h in LB broth, highest concentration tested 32 µg/mL) was over 32 mg/L and the MBC [3, 11] was over 32 mg/L. It also gave an MIC [4, 12] of 4 ± 1.2 mg/L, an MBC [4, 11] of 4.4 ± 1.9 mg/L and an MIC [5, 12] of 3.8 ± 0.4 mg/L. The MBC [5, 11] was 4 ± 0 mg/L, the MIC [6, 12] was 2.4 ± 0.8 mg/L and the MBC [6, 11] was 2.7 ± 1.2 mg/L. It also gave an MIC [7, 8] of 4.9 ± 1.5 mg/L, an MBC [7, 9] of 6.7 ± 2.3 mg/L and an MIC [7, 10] of 6.7 mg/L.
